# Measured values reported in article PMC7948480, “Enzymatic and structural properties of human glutamine:fructose-6-phosphate amidotransferase 2 (hGFAT2)” (The Journal of Biological Chemistry, 2020).
# B1: recombinant human glutamine:fructose-6-phosphate amidotransferase 2 with a C-terminal 6xHisTag (rhGFAT2-his) (enzyme, UniProt O94808 2-682, looked up)
# chain: CGIFAYMNYRVPRTRKEIFETLIKGLQRLEYRGYDSAGVAIDGNNHEVKERHIQLVKKRGKVKALDEELYKQDSMDLKVEFETHFGIAHTRWATHGVPSAVNSHPQRSDKGNEFVVIHNGIITNYKDLRKFLESKGYEFESETDTETIAKLIKYVFDNRETEDITFSTLVERVIQQLEGAFALVFKSVHYPGEAVATRRGSPLLIGVRSKYKLSTEQIPILYRTCTLENVKNICKTRMKRLDSSACLHAVGDKAVEFFFASDASAIIEHTNRVIFLEDDDIAAVADGKLSIHRVKRSASDDPSRAIQTLQMELQQIMKGNFSAFMQKEIFEQPESVFNTMRGRVNFETNTVLLGGLKDHLKEIRRCRRLIVIGCGTSYHAAVATRQVLEELTELPVMVELASDFLDRNTPVFRDDVCFFISQSGETADTLLALRYCKDRGALTVGVTNTVGSSISRETDCGVHINAGPEIGVASTKAYTSQFISLVMFGLMMSEDRISLQNRRQEIIRGLRSLPELIKEVLSLEEKIHDLALELYTQRSLLVMGRGYNYATCLEGALKIKEITYMHSEGILAGELKHGPLALIDKQMPVIMVIMKDPCFAKCQNALQQVTARQGRPIILCSKDDTESSKFAYKTIELPHTVDCLQGILSVIPLQLLSFHLAVLRGYDVDFPRNLAKSVTVE
# notes: human glutamine:fructose-6-phosphate amidotransferase 2 (hGFAT2), product of the gfpt2 gene; The His tag comes from pET23a after the NotI site; Mostly a tetramer by SEC, with higher oligomers up to octamers; also called rhGFAT-his; source: E. coli Codon plus, soluble fraction, purified (Ni-NTA HisTrap column); not shown: His6, C-terminal, kept
# Key:
# [1] = target: the molecule itself; assay: SEC; Superdex 200 column, 20 mM Tris-HCl pH 7.5, 150 mM NaCl, 1 mM DTT, 0.5% NP-40, 1 ml/min; mass estimated from standard proteins
# [2] = target: the molecule itself; assay: cross-linking; 3, 5 or 10 ug of purified rhGFAT2-his in PBS with 1 mM EGS, 30 min, room temperature; stopped with 30 mM Tris-HCl pH 8.0; gradient SDS-PAGE, Coomassie staining
protein,measurement,setting,value
B1,stoichiometry N,[1],≤ 8
same,stoichiometry N,[2],4
